Laboratory results as given in FireProtDB (doi:10.1006/jmbi.1999.2852).

Conditions: Pseudomonas aeruginosa (strain ATCC 15692 / DSM 22644 / CIP 104116 / JCM 14847 / LMG 12228 / 1C / PRS 101 / PAO1), 10 °C, GdnHCl, Fluorescence, reversible: yes (100%), whole UniProt chain shown
[1] = pH 4, phosphate/acetate 25 mM/25 mM/
[2] = pH 4.7, phosphate/acetate 25 mM/25 mM/

B1: Cytochrome c-551 wild type, P00099 (protein)
chain: MKPYALLSLLATGTLLAQGAWAEDPEVLFKNKGCVACHAIDTKMVGPAYKDVAAKFAGQAGAEAELAQRIKNGSQGVWGPIPMPPNAVSDDEAQTLAKWVLSQK
Which denaturant m value (pH 3, citrate 15 mM) does the source give for B1 here?
Its denaturant m value is 3.3 kcal/mol/M.

What about the “denaturant midpoint (higher = more stable)” value (“denaturant midpoint” for short) (pH 3, citrate 15 mM) of the same protein?
The value was 1 M.

What about the unfolding free energy (pH 3, citrate 15 mM) of the same protein?
The unfolding free energy was 3.3 kcal/mol.

And the denaturant m value [1]?
The denaturant m value was 2.8 kcal/mol/M.

What about the “denaturant midpoint” value [1] of the same protein?
Its value is 2.1 M.

And the unfolding free energy [1]?
The unfolding free energy was 5.9 kcal/mol.

And the denaturant m value [2]?
Its denaturant m value is 3.1 kcal/mol/M.

What about the “denaturant midpoint” value [2] of the same protein?
The value was 2.1 M.

What about the unfolding free energy [2] of the same protein?
The unfolding free energy was 6.6 kcal/mol.

And the denaturant m value (pH 7, Sodium phosphate 50 mM)?
The denaturant m value was 3.3 kcal/mol/M.

What about the “denaturant midpoint” value (pH 7, Sodium phosphate 50 mM) of the same protein?
The value was 1.8 M.

And the unfolding free energy (pH 7, Sodium phosphate 50 mM)?
The unfolding free energy was 6 kcal/mol.
